Experimental data: PMC10113255, “PHF14 enhances DNA methylation of SMAD7 gene to promote TGF-β-driven lung adenocarcinoma metastasis”

T1: PHF14 ePHD domain WT (Homo sapiens, UniProt O94880 382-499)
T1 sequence: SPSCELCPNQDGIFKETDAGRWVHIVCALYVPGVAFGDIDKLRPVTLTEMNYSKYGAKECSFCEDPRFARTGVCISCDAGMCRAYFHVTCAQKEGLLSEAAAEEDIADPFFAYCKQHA


Target: T1, PHF14 ePHD domain WT
Assay: SPR; protein immobilized on CM5; SPR: HBS-P (10 mM HEPES pH 7.4, 150 mM NaCl, 0.05% P20), 25 °C, 1:1 Langmuir fit; EMSA: LightShift kit protocol, 0.5x TBE native PAGE, buffer not stated
Conditions: protein: recombinant; tags: His (EMSA, purification method); FLAG (SPR); label: biotin (EMSA); blunt

| Binder | Kd [µM] |
| --- | --- |
| AT-rich probe (dsDNA) DNA 1: CATTAGATGATAGCATTAGATGATAG DNA 2: CTATCATCTAATGCTATCATCTAATG | 0.23 |
| CG-rich probe, unmethylated (dsDNA) DNA 1: ACGGCTCGTCGCTACGGCTCGTCGCT DNA 2: AGCGACGAGCCGTAGCGACGAGCCGT | 0.036 |
